Measurements as given in paper doi:10.1101/2025.09.17.674891 (bioRxiv, 2025).

Columns and labels:
[1] = molecular target: T1, SARS-CoV-2 RBD (recombinant) (SARS-CoV-2, UniProt P0DTC2); assay: flow cytometry on cells
[2] = molecular target: T1, SARS-CoV-2 RBD (recombinant); assay: ELISA
[3] = molecular target: WIV-1 RBD (recombinant) (bat sarbecovirus WIV-1, UniProt U5WI05); assay: ELISA
[4] = molecular target: RacCS203 RBD (recombinant) (Bat coronavirus RacCS203); assay: ELISA
[5] = molecular target: Rs4231 RBD (recombinant) (Bat SARS-like coronavirus, isolate …, UniProt A0A2D1PXA9); assay: ELISA

B1: VA14_26 IgG (antibody, V domains shown)
VH: QVQLQQWGAGLLKPSDTLSLTCGISGGPFSGYYWSWIRQPPGKGLEWLGEINHSGITTYNPSLKSRGTISVDTSKRQISLKLASVTAADTAVYYCARFAYGDYGWDYSSDMDVWGKGTTVTVSS
VL: DIQLTQSPSTLSASVGDRVTITCRASQSISTWLAWHQQIPGKAPKLLIYRASTLQSGVPSRFSGSGSGTEFTLTISSLQPDDFATYYCQQYYSVRTFGQGTKVDIK
[1]
  binding result: binds

B2: V1WT_06 IgG (antibody, V domains shown)
VH: EVQLVQSGAEVKKPGASVKVSCKASGYTFSSHGISWVRQAPGQGLEWMGWISTYNGNTNSAQNLQGRVTMTADTSTSTAYMELRSLRSDDTAVYYCARGPWGYCSGTSCYYWTPDNPAYSYHGMDVWGQGTTVTVSS
VL: not shown
[2]
  fold increase in binding of the IgG over the Fab: 1.3 fold

B3: V1WT_06 Fab (Fab, V domains shown)
VH: EVQLVQSGAEVKKPGASVKVSCKASGYTFSSHGISWVRQAPGQGLEWMGWISTYNGNTNSAQNLQGRVTMTADTSTSTAYMELRSLRSDDTAVYYCARGPWGYCSGTSCYYWTPDNPAYSYHGMDVWGQGTTVTVSS
VL: not shown
[3]
  binding result: binds

B4: V1WT_41 IgG (antibody, V domains shown)
VH: QVQLQESGPGLVKPSETVSVTCTVSGGSITRSNYYWGWIRQPPGKGLEWIGSIFYNGNTNYNPSLKSRLTISVDTSKNQFSLKLSSVTAADTAVYYCARTAPYYYDRSGYYQKEEYFQRWGQGTLVTVSS
VL: EIVMTQSPSTLSASVGDRVTITCRASQSISTWLAWYQQKPGKAPNLLIYQASSLESGVPSRFSGSGSGTEFTLTISSLQPDDFATYYCQQYNNYPRTFGQGTKLEIK
[4]
  binding result: binds
[2]
  binding result: binds
[5]
  binding result: binds
